According to patent publication US20230321261A1, “AXL-SPECIFIC ANTIBODY-DRUG CONJUGATES FOR CANCER TREATMENT” (GENMAB A/S, priority 2016, published 2023):

Columns and labels:
[1] = target: T1, Gas6 binding to AXL on A431 cells (Homo sapiens, UniProt P30530); assay: Gas6 binding to A431 cells pre-incubated with AXL antibodies; settings: pre-incubation with 10 µg/mL antibody; control antibody b12
T1 construct: endogenous in cells; host or cells: A431
Procedure: Alternatively, A431 cells were pre-incubated with 10 µg/mL AXL antibodies (15 minutes, 4° C.) to assess if the AXL ligand Gas6 could still bind in presence of AXL antibodies. […] After washing three times in PBS/0.1% BSA/0.02% azide, cells were incubated with mouse anti-Gas6 IgG2a (R&D Systems; cat no. MAB885) at 4° C. for 30 min. After washing three times in PBS/0.1% BSA/0.02% azide, cells were incubated with FITC-labelled goat anti-mouse IgG (Dako, Heverlee, Belgium; cat no. F049702) at 4° C. for 30 min in the dark. Next, cells were washed twice in PBS/0.1% BSA/0.02% azide, resuspended in 120 µL PBS/0.1% BSA/0.02% azide and analyzed on a FACS Cantoll (BD Biosciences).
(§1) Binding curves were analyzed using non-linear regression (sigmoidal dose-response with variable slope) using GraphPad Prism V5.04 software (GraphPad Software, San Diego, CA, USA).
Therefore, binding of Gas6 to A431 cells that had been pre-incubated with 10 µg/mL AXL antibodies was tested as described in Example 2.

[2] = target: T2, AXLECDHis (extracellular domain of human AXL) (Homo sapiens, UniProt P30530); assay: Binding affinity by Bio-Layer Interferometry (ForteBio OctetRED384); settings: 1:1 model, 30° C.
T2 construct: the extracellular domain (ECD) of human AXL (aa 1-447) with a C-terminal His tag (AXLECDHis); His tag (C); made in house; host or cells: HEK-293F

[3] = target: T3, human AXL with a cynomolgus monkey extracellular domain (ECD) (Homo sapiens, UniProt P30530, P441T/S191N/S285L/T105A/T112A/T125N/T443A); assay: Flow cytometry binding to transfected HEK293T cells; settings: at least 3 experiments
T3 construct: aa 1-447); human AXL transmembrane and intracellular part (the remainder of human AXL after the ECD; expressed in transfected cells; host or cells: HEK293T

[4] = target: T4, human-mouse chimeric AXL mutants (Homo sapiens, UniProt P30530, A273L/A287V/A310S/E275K/E281D/G297E/H300L/L233V/M269V/N230H/P276S/P329T/Q227R/Q272W/R229H/S285L/S298K/S319P/T259N/T312S/V309I); assay: AXL domain specificity using human-mouse AXL chimeric molecules (flow cytometry); type: binding; settings: 1 µg/mL antibody
T4 construct: constructs for expression of various full-length AXL variants were generated; expressed in transfected cells; host or cells: HEK293F

full length human AXL = target: T5, full length human AXL (Homo sapiens, UniProt P30530); assay: Flow cytometry binding to transfected HEK293T cells; settings: at least 3 experiments
T5 construct: expression constructs for full length human AXL; expressed in transfected cells; host or cells: HEK293T
Procedure: HEK293T cells were transiently transfected with expression constructs for full length human AXL, human AXL with a cynomolgus monkey extracellular domain (ECD) or human AXL with a mouse ECD (see Example 1). Binding of HuMab-AXL antibodies to these cells was evaluated by flow cytometry. Transfected HEK293 cells were incubated with serial dilutions of AXL-antibodies (final concentration range 0.0024-10 µg/mL) for 30 minutes at 4° C. […] Next, cells were washed twice in PBS/0.1% BSA/0.02% azide, resuspended in 120 µL PBS/0.1% BSA/0.02% azide and analyzed on a FACS Cantoll (BD Biosciences).
as §1

AXL on A431 cells = target: T6, AXL on A431 cells (Homo sapiens, UniProt P30530); assay: Antibody binding to A431 cells with or without Gas6 pre-incubation; settings: for Antibody binding to A431 cells: EC50 in presence of Gas6 (µg/mL) mean (s.d.) / Antibody binding to A431 cells: Maximal binding in presence of Gas6 (% of binding in absence of Gas6) mean (s.d.): pre-incubation with 10 µg/mL Gas6; for Antibody binding to A431 cells: EC50 w/o Gas6 (µg/mL) mean (s.d.): without Gas6 pre-incubation
T6 construct: AXL-positive A431 cells were incubated; endogenous in cells; host or cells: A431

[5] = test system: LCLC-103H xenograft tumors; assay: LCLC-103H xenograft model; type: in vivo, SCID mice; settings: 3 mg/kg (Example 13, FIG. 14A)
Procedure: 5 × 10^6 LCLC-103H (large cell lung carcinoma) tumor cells (obtained from Leibniz-Institut DSMZ-Deutsche Sammlung von Mikroorganismen und Zellkulturen GmbH (DSMZ)) in 200 µL PBS were injected subcutaneously in the right flank of female SCID mice. Starting 14-21 days after tumor cell inoculation, when the average tumor size was >100-200 mm^3 and distinct tumor growth was observed, a single injection with 1 mg/kg (20 µg/mouse) IgG1-AXL-vcMMAE antibodies (as described in Supplementary Example 1) or control (unconjugated IgG1-b12) was given intraperitoneally (100 µL/mouse). Tumor volume was determined at least two times per week. Tumor volumes (mm^3) were calculated from caliper (PLEXX) measurements as: 0.52 × (length) × (width)^2.
(§2) Tumor induction was performed by subcutaneous injection of 5 × 10^6 A431 or LCLC-103H tumor cells (both obtained from Leibniz-Institut - Deutsche Sammlung von Mikroorganismen und Zellkulturen GmbH (DSMZ)) in 200 µL PBS in the right flank of female SCID mice. Treatment was started 14-21 days after tumor cell inoculation, when the average tumor size was >100-200 mm^3 and distinct tumor growth was observed. Mice received a single injection or a total of 4 biweekly intraperitoneal injections with IgG1-AXL-vcMMAE ADCs or control antibody (unconjugated IgG1-b12), as indicated. Tumor volume was determined at least two times per week. Tumor volumes (mm^3) were calculated from caliper (PLEXX) measurements as: 0.52 × (length) × (width)^2.

A431 tumors = assay: A431 xenograft model (high Gas6); type: in vivo, SCID mice; settings: 3 mg/kg
Procedure: as §2

[6] = target: T7, human AXL transiently expressed by HEK-293F cells (Homo sapiens, UniProt P30530); assay: Homogeneous antigen specific screening assay (FMAT); type: binding
T7 construct: TH1021-AXL (HEK-293F cells transiently expressing full length human AXL; produced as described above); expressed in transfected cells; host or cells: HEK-293F

B1: IgG1-AXL-183: AXL-specific human IgG1,κ antibody, VH SEQ ID NO:16, VL SEQ ID NO:18, FN1 domain binding (antibody, listed as Homo sapiens, V domains shown)
VH: QVQLQQWGAGLLKPSETLSLTCAVYGGSFSGYYWSWIRQPPGKGLEWIGEINQSGSTNYNPSLKSRVTISVDTSKNQFSLKLSSVTAADTSVYYCASGNWDHFFDYWGQGTLVTVSS
VL: DIQMTQSPSSVSASVGDRVTITCRASQGISSWLAWYQHKPGKAPKLLIYATSSLQSGVTSRFSGSGSGTDFTLTISSLQPEDFATYYCQQAKSFPWTFGQGTKVEIK
With B1 the “Gas6 binding to A431 cells: Maximal binding in presence of AXL antibodies (% of binding in presence of control antibody) mean (s.d.)” value [1] was 115 (8) %, the “Binding affinity (OCTET) Kdis” value [2] was 0.00042 s⁻¹ and the “Binding EC50 (µg/mL) cynomolgus AXL Average (s.d.)” value [3] was 0.309 (0.086) µg/mL. The “binding to hsAXL-mmFN1” value [4] was “reduced binding”, the “Binding EC50 (µg/mL) human AXL Average (s.d.)” value (full length human AXL) was 0.526 (0.177) µg/mL and the “Antibody binding to A431 cells: EC50 in presence of Gas6 (µg/mL) mean (s.d.)” value (AXL on A431 cells) was 1.19 (1.11) µg/mL. For the same molecule, the “Antibody binding to A431 cells: Maximal binding in presence of Gas6 (% of binding in absence of Gas6) mean (s.d.)” value (AXL on A431 cells) was 90 (19) % and the “Antibody binding to A431 cells: EC50 w/o Gas6 (µg/mL) mean (s.d.)” value (AXL on A431 cells) was 0.69 (0.72) µg/mL.

B2: IgG1-AXL-183-N52Q: point mutant of IgG1-AXL-183, VH SEQ ID NO:17, VL SEQ ID NO:18 (antibody, listed as Homo sapiens, V domains shown)
VH: QVQLQQWGAGLLKPSETLSLTCAVYGGSFSGYYWSWIRQPPGKGLEWIGEIQQSGSTNYNPSLKSRVTISVDTSKNQFSLKLSSVTAADTSVYYCASGNWDHFFDYWGQGTLVTVSS
VL: DIQMTQSPSSVSASVGDRVTITCRASQGISSWLAWYQHKPGKAPKLLIYATSSLQSGVTSRFSGSGSGTDFTLTISSLQPEDFATYYCQQAKSFPWTFGQGTKVEIK
In the case of B2, the “Binding affinity (OCTET) Kdis” value [2] is reported as 0.001 s⁻¹, the “Binding affinity (OCTET) Kon” value [2] is reported as 42000 M⁻¹ s⁻¹ and the “Binding EC50 (µg/mL) cynomolgus AXL Average (s.d.)” value [3] is reported as 0.324 (0.121) µg/mL. The “Binding EC50 (µg/mL) human AXL Average (s.d.)” value (full length human AXL) was 0.350 (0.206) µg/mL.

B3: IgG1-AXL-183-vcMMAE (conjugate)
VH: QVQLQQWGAGLLKPSETLSLTCAVYGGSFSGYYWSWIRQPPGKGLEWIGEINQSGSTNYNPSLKSRVTISVDTSKNQFSLKLSSVTAADTSVYYCASGNWDHFFDYWGQGTLVTVSS
VL: DIQMTQSPSSVSASVGDRVTITCRASQGISSWLAWYQHKPGKAPKLLIYATSSLQSGVTSRFSGSGSGTDFTLTISSLQPEDFATYYCQQAKSFPWTFGQGTKVEIK
In the case of B3, the “anti-tumor activity in the LCLC-103H xenograft model” value [5] is reported as “tumor regression” and the “anti-tumor activity in the A431 xenograft model” value (A431 tumors) is reported as “growth inhibition”.

B4: IgG1-AXL-511: AXL-specific human IgG1,κ antibody, VH SEQ ID NO:136, VL SEQ ID NO:140, Ig2 domain binding (antibody, listed as Homo sapiens, V domains shown)
VH: EVQLLESGGGLVQPGGSLRLSCAASGFTFSSYAMNWVRQAPGKGLEWVSGISGSGGHTYHADSVKGRFTISRDNSKNTLYLQMNSLRAEDTAVYYCAKDRYDILTGYYNLLDYWGQGTLVTVSS
VL: DIQMTQSPSSLSASVGDRVTITCRASQGISSWLAWYQQKPEEAPKSLIYAASSLQSGVPSRFSGSGSGTDFTLTISSLQPEDFATYYCQQYNSYPLTFGGGAKVEIK
With B4 the “Gas6 binding to A431 cells: Maximal binding in presence of AXL antibodies (% of binding in presence of control antibody) mean (s.d.)” value [1] was 113 (6) %, the “Binding affinity (OCTET) Kdis” value [2] was 0.0039 s⁻¹ and the “Binding affinity (OCTET) Kon” value [2] was 170000 M⁻¹ s⁻¹. The “Antibody binding to A431 cells: EC50 in presence of Gas6 (µg/mL) mean (s.d.)” value (AXL on A431 cells) was 0.30 (0.31) µg/mL, the “Antibody binding to A431 cells: Maximal binding in presence of Gas6 (% of binding in absence of Gas6) mean (s.d.)” value (AXL on A431 cells) was 93 (15) % and the “Antibody binding to A431 cells: EC50 w/o Gas6 (µg/mL) mean (s.d.)” value (AXL on A431 cells) was 0.12 (0.11) µg/mL.

B5: IgG1-AXL-187: AXL-specific human IgG1,κ antibody, VH SEQ ID NO:19, VL SEQ ID NO:20 (antibody, listed as Homo sapiens, V domains shown)
VH: QVPLQQWGAGLLKPSETLSLTCAVYGGSFSGYHWSWIRQPPGKGLEWIGEISHSGRTNYNPSLKSRVTISIDTSKNQFSLKLSSVTAADTAVYYCASFITMIRGTIITHFDYWGQGTLVTVSS
VL: DIQMTQSPSSLSASVGDRVTITCRASQGISSWLAWYQQKPEKAPKSLIYAASSLQSGVPSRFSGSGSGTDFTLTISSLQPEDFATYYCQQYHSYPYTFGQGTKLEIK
For B5, the “Maximal binding (Arbitrary units)” value [6] was 2563 Arbitrary units.

B6: IgG1-AXL-140: AXL-specific human IgG1,κ antibody, VH SEQ ID NO:3, VL SEQ ID NO:4 (antibody, listed as Homo sapiens, V domains shown)
VH: EVQLLESGGGLVQPGGSLRLSCAASGFTFSSYAMTWVRQAPGKGLEWVSAISISGASTFYADSVKGRFTISRDNSKNTLSLQMNSLRAEDTAVYFCRGYSGYVYDAFDIWGQGTMVTVSS
VL: DIQMTQSPSSLSASVGDRVTITCRASQGISNWLAWYQQKPEKAPKSLIYAASSLQSGVPSRFSGSGSGTDFTLTISSLQPEDFATYYCQQYNSYPLTFGGGTKVEIK
With B6 the “Maximal binding (Arbitrary units)” value [6] was 2889 Arbitrary units.

B7: IgG1-AXL-726-vcMMAE (conjugate)
VH: QVQLQQWGAGLLKPSETLSLTCAIDGGSFSGYYWSWIRQPPGKGLEWIGEISHSGRTNYNPSLKSRVTISIDTSKNQFSLKLSSVAAADTAVYYCARFITMIRGAIITHFDYWGQGALVTVSS
VL: DIQMTQSPSSLSASVGDRVTITCRASQGISSWLAWYQQKPEKAPKSLIYAASSLQSGVPSRFSGSGSGTDFTLTISSLQPEDFATYYCQQYHSYPYTFGQGTKLEIK
B7 was tested, and the “anti-tumor activity in the LCLC-103H xenograft model” value [5] was “tumor regression” and the “anti-tumor activity in the A431 xenograft model” value (A431 tumors) was “growth inhibition”.
